Results on 10 molecules are retold here after patent publication US20220306733A1.

This assay deals with Polyspecificity reagent (PSR): biotinylated soluble membrane proteins of CHO cells. Briefly: flow cytometry, biotinylated PSR on IgG-presenting yeast. For orientation: A flow cytometer gives signals particle by particle.

B1: anti-TIGIT antibody clone 29513 (antibody, V domains shown)
VH: QVQLVQSGAEVKKPGSSVKVSCKASGGTFQNYAISWVRQAPGQGLEWMGVIVPIFGTANYAQKFQGRVTVTADESTSTAYMELSSLRSEDTAVYYCARLHLGQKAYYGMDVWGQGTTVTVSS
VL: DIQMTQSPSSLSASVGDRVTITCRASQSISSYLNWYQQKPGKAPKLLIYAASSLQSGVPSRFSGSGSGTDFTLTISSLQPEDFATYYCQQRYVFPPTFGGGTKVEIK
In turn, B1 gave a Polyspecificity Reagent (PSR) Score (0-1) of 0.01 score 0-1.

B2: anti-TIGIT antibody clone 26493 (antibody, V domains shown)
VH: EVQLVESGGGLVQPGRSLRLSCAASGFTFGDYAMHWVRQAPGKGLEWVSGITWNSGSIGYADSVKGRFTISRDNAKNSLYLQMNSLRAEDTALYYCAKPVPKSRGLDVWGQGTMVTVSS
VL: DIQLTQSPSSVSASVGDRVTITCRASQGISSWLAWYQQKPGKAPKLLIYGASSLQSGVPSRFSGSGSGTDFTLTISSLQPEDFATYYCQQAFYLPWTFGGGTKVEIK
The molecule B2 came in with a Polyspecificity Reagent (PSR) Score (0-1) of 0 score 0-1.

B3: anti-TIGIT antibody clone 29523 (antibody, V domains shown)
VH: EVQLVESGGGVVQPGRSLRLSCAASGFTFGSYYMHWVRQAPGKGLEWVAVIWPDGSNKLYADSVKGRFTISRDNSKNTLYLQMNSLRAEDTALYYCAKPVPKSRALDVWGQGTMVTVSS
VL: DIQLTQSPSSVSASVGDRVTITCRASQGISSWLAWYQQKPGKAPKLLIYGASSLQSGVPSRFSGSGSGTDFTLTISSLQPEDFATYYCQQAFYLPWTFGGGTKVEIK
B3 displayed a Polyspecificity Reagent (PSR) Score (0-1) of 0.12 score 0-1.

B4: anti-TIGIT antibody clone 29527 (antibody, V domains shown)
VH: QVQLVESGGGVVQPGRSLRLSCAASGFTFSSSYMHWVRQAPGKGLEWVAVIGADGSNKYYADSVEGRFTISRDNSKNTLYLQMNSLRAEDTALYYCAKPVPRRRGLDVWGQGTMVTVSS
VL: DIQLTQSPSSVSASVGDRVTITCRASQGISSWLAWYQQKPGKAPKLLIYGASSLQSGVPSRFSGSGSGTDFTLTISSLQPEDFATYYCQQAFYLPWTFGGGTKVEIK
Regarding B4, the Polyspecificity Reagent (PSR) Score (0-1) amounted to 0.12 score 0-1.

B5: anti-TIGIT antibody clone 29520 (antibody, V domains shown)
VH: QVQLVESGGGLVQPGRSLRLSCAASGFTFRDYAMHWVRQAPGKGLEWVSGITWNSGLIGYADSVKGRFTISRDNAKNSLYLQMNSLRAEDTALYYCAKPVPRLRGLDVWGQGTMVTVSS
VL: DIQLTQSPSSVSASVGDRVTITCRASQGISSWLAWYQQKPGKAPKLLIYGASSLQSGVPSRFSGSGSGTDFTLTISSLQPEDFATYYCQQAFYLPWTFGGGTKVEIK
Molecule B5 came in with a Polyspecificity Reagent (PSR) Score (0-1) of 0.32 score 0-1.

B6: anti-TIGIT antibody clone 26486 (antibody, V domains shown)
VH: QVQLQESGPGLVKPSETLSLTCAVSGYSISSGYYWAWIRQPPGKGLEWIGSIYHSGSTYYNPSLKSRVTISVDTSKNQFSLKLSSVTAADTAVYYCAIEGANYYDFGYVAFDIWGQGTMVTVSS
VL: EIVMTQSPATLSVSPGERATLSCRASQSVSSNLAWYQQKPGQAPRLLIYGASTRATGIPARFSGSGSGTEFTLTISSLQSEDFAVYYCQQSPPWPRTFGGGTKVEIK
For the molecule B6, the Polyspecificity Reagent (PSR) Score (0-1) amounted to 0 score 0-1.

B7: anti-TIGIT antibody clone 29499 (antibody, V domains shown)
VH: QLQLQESGPGLVKPSETLSLTCTVSGGSISSSRYYWAWIRQPPGKGLEWIGSIGTSGSTYYNPSLKSRVTISVDTSKNQFSLKLSSVTATDTAVYYCAIEGANFRDFGYVAFDIWGQGTMVTVSS
VL: EIVMTQSPATLSVSPGERATLSCRASQSVSSNLAWYQQKPGQAPRLLIYGASTRATGIPARFSGSGSGTEFTLTISSLQSEDFAVYYCQQSPPWPRTFGGGTKVEIK
Take B7: the Polyspecificity Reagent (PSR) Score (0-1) is 0.1 score 0-1.

B8: anti-TIGIT antibody clone 31288 (antibody, V domains shown)
VH: QLQLQESGPGLVKPSETLSLTCTVSGGSISSGSYYLAWIRQPPGKGLEWIGSIFRSGSTYYNPSLESRVTISVDTSKNQFSLKLSSVTAADTAVYYCAIEGANFKDFGYVAFDIWGQGTTVTVSS
VL: EIVMTQSPATLSVSPGERATLSCRASQSVSSNLAWYQQKPGQAPRLLIYGASTRATGIPARFSGSGSGTEFTLTISSLQSEDFAVYYCQQSPPWPRTFGGGTKVEIK
B8 gave a Polyspecificity Reagent (PSR) Score (0-1) of 0 score 0-1.

B9: anti-TIGIT antibody clone 29494 (antibody, V domains shown)
VH: QVQLQESGPGLVKPSETLSLTCTVSGGSISSGSYYLAWIRQPPGKGLEWIGSIFRSGSTYYNPSLESRVTISVDTSKNQFSLKLSSVTAADTAVYYCAIEGANFKDFGYVAFDIWGQGTMVTVSS
VL: EIVMTQSPATLSVSPGERATLSCRASQSVSSNLAWYQQKPGQAPRLLIYGASTRATGIPARFSGSGSGTEFTLTISSLQSEDFAVYYCQQSPPWPRTFGGGTKVEIK
For the molecule B9, the Polyspecificity Reagent (PSR) Score (0-1) worked out at 0 score 0-1.

B10: anti-TIGIT antibody clone 32931 (antibody, V domains shown)
VH: QLQLQESGPGLVKPSETLSLTCTVSGGSISSGSYYLAWIRQPPGKGLEWIGSIFRSGSTYYNPSLESRVTISVDTSKNQFSLKLSSVTAADTAVYYCAIEGANFKDFGYVAFDIWGQGTTVTVSS
VL: EIVMTQSPATLSVSPGERATLSCRASKSVSSNLAWYQQKPGQAPRLLIYFASTRATGIPARFSGSGSGTEFTLTISSLQSEDFAVYYCQQTSPWPRTFGGGTKVEIK
With B10, the Polyspecificity Reagent (PSR) Score (0-1) was found to be 0 score 0-1.
